Sequences and labels used below:
B1: rCsPGDS1 (Clonorchis sinensis) (protein)
chain: MSQYKLTYFNLRGRAEPIRMVLIISGTPFEDCRIEVSDWPSKKSTIPGGKLPILEVTSPCGKKTLMTESMATARYLAKQHNLMGATDEDYYKIEKTIGECGDLHDLVYKIARAPDAEKPKLIEELKKLENAPRLLNLMSETLKSNPSGFVAGEKVSLGDIALLCTLDQFESVYPGFLKENYPIFANHREHIMELQPKLAEHIKTRPTTIV
B2: rCsGST-σ1 (Clonorchis sinensis) (protein)
chain: MADEHYTLFYFQFRGRAEAIRMILHANGVHFKDERFTMNEWPERRNQIPGSRVPLLQVKKNKTHEVANYVESMAIARMLAKRFHMMGDSEEEYYRVERMIGQCADLDKEFYTAFFAAADQKEEMLKKSMREAVPKMLDLISKSISESGGKFAAGDKVTLGDICLLTSMDHVRKHDPEFLGKHYPKLLVLEQEVLKAKPKLAEYIRTRPETPL
B3: rCsGST-μ1 (Clonorchis sinensis) (protein)
chain: MAPVLGYWKIRGLAQPIRLLLEYVGDSYEEHSYGRCDGEKWQNDKHNLGLELPNLPYYKDGNFSLTQSLAILRYIADKHNMIGNTPVERAKISMIEGGLVDLRAGVSRIAYQETFVCIVSTFCLSHTSQEQLKVPYLQQLPSTLRMWSQFLGNNSYLHGSTPTHLDFMFYEALDVIRYLDPTSVEAFPNLMQFIHRIEALPNIKAFMESDRFIKWPLNGWSAYFGGGDAPPK
B4: rCsGST-σ3 (Clonorchis sinensis) (protein)
chain: MSGEKYKLYYFPFRARGEVIRMVLHAAGVPFDDERIPMDDWPKRKSEIPGGRMPVLQVIDPDKPDTPKNFVEGMAIARMLAKRFDLMDDTEEGYYNTERMIGECEDVFKEFRSVFLSPADKKEELLKEAMETSIPKQLDLISKSLSESAGKFVAGCKVTLGDLCLLACLDHVDKSDPEFLKDKYPKLLEWREEVLKEKPKLADYIKSRPDTPF

Substrate in this data set: [H][C@]12C[C@]([H])(OO1)[C@H](C/C=C\CCCC(=O)O)[C@H]2/C=C/[C@@H](O)CCCCC
Put plainly: purified protein. The settings on record: PGD2 synthase reaction; 2 mM GSH fixed (saturating); PGH2 0.08-40 μM.
The Km is the substrate concentration at which the rate is half of its maximum. The kcat is the maximal rate divided by the concentration of active sites. As a reminder, the kcat/Km is the second-order rate constant that governs catalysis at low substrate concentration. Consider B1, for which the Km was 21.0 µM, the kcat worked out at 90.6 s⁻¹ and the kcat/Km was found to be 4.3e+06 M⁻¹ s⁻¹.
The corresponding values for B2 are 92.1 µM, 451 s⁻¹ and 4.9e+06 M⁻¹ s⁻¹.
On the same counts, the results for B3 are 4.9 µM, 12.5 s⁻¹ and 2.6e+06 M⁻¹ s⁻¹.
On to B4, for which the Km turned out to be 30.2 µM, the turnover number (kcat) was determined as 90.7 s⁻¹ and the kcat/Km stood at 3e+06 M⁻¹ s⁻¹.

For the origin of these results see PMC11150925.
